Patent US20200040057A1 (IMMATICS BIOTECHNOLOGIES, published 2020)

target: HLA-B*07 (human); assay: UV peptide exchange ELISA; ++++ = yield >75%

Peptide exchange yield, > 75%:
VPKSLPYVL
KPRNMTGLDL
SPRRLVELAGQSL
NPASRLTAL
RPKHFLQML
APKTSFIAA
RPKTSVNLISSL
SPASRSISLL
LPAFSKIGGIL
VPIPTHYFVVL
APLRVHITSL
APQVHIFSL
KPRTPFTTAQL
VPILPLNHAL
QPRDGWPMML
FPQVGRTAL
RPPLSQRHTF
VPYPSPTCV
MPLLADVRL
SPLEKINSF
SPSSASLTL
SPRQPRLDF
LPLDTRTSI
APALPGQVTI
SPTLRQLDL
APAKDARASL
LPRGVLEGL
RPNGEVKSEL
FPVQATIDF
RPKSTLMNF
SPDPAHLESL
IPMPRITWL
QPVKKNTL
SPAPWRPWI
SPSFSSTLLSL
LPSLHVLVL
LPAPTSLVL
SPYGSDRLVQL
VPRNQDWLGVSRQL
APLMPLGKTL
SPMEAILVSRL
SPYPGSAAF
KPRTPFTTA
VPRPTSTVGLFL
RPYGCVLRAA
MPHLGPGILL
LPTDLFNSVM
GPRQVLFPL
RPGPQRTTSV
